This note sets out measurements from EP4491230A1 (iOmx Therapeutics AG, dated 2025).

The target in this test is recombinant LILRA1 ECD (human, UniProt O75019 17-461). The experiment in a line: BLI, IgG on AHC sensor, ECD as analyte.
Chain of recombinant LILRA1 ECD (O75019 17-461 limits assumed): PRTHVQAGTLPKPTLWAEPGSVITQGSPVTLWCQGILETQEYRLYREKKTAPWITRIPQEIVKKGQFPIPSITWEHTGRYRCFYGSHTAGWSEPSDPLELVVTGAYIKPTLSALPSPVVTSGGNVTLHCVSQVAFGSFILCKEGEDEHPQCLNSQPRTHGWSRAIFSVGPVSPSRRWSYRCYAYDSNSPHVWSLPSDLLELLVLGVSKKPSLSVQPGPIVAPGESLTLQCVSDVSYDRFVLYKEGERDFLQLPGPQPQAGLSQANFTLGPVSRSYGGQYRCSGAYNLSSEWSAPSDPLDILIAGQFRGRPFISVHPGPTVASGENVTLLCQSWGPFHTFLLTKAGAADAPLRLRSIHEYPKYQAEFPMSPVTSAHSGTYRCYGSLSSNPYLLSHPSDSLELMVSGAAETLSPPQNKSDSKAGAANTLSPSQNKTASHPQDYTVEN

B1: A-046 (antibody, V domains shown)
VH: QVQLVQSGAEVKKPGSSVKVSCKASGGSFQSYAINWVRQAPGQGLEWMGGIIPGFSTANYAQKFQGRVTITADESTSTAYMELSSLRSEDTAVYYCAKDLGTYSSGWPYYYGMDVWGQGTTVTVSS
VL: SYELTQPPSVSVSPGQTASITCSGDKLGDKYASWYQQKPGQSPVLVIYQDSKRPSGIPERFSGSNSGNTATLTISGTQAEDEADYYCQLTHLTIYVFGGGTKLTVL
notes: HC of A-015 and LC of A-036; Tested as IgG
As to B1, the binding result was “no binding (tested: 900 nM of LILRA1 ECD)”.
